Two molecules from article PMC12152161 (2025) can be followed below.

The assay concerns the target T1, His10 − MBP − KIF1C(714–809) (UniProt O43896 714-809).
T1 chain: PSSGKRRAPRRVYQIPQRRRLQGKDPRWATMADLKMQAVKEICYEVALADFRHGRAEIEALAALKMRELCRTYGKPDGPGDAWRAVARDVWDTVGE
Briefly: ITC.

B1: His10 − MBP − PTPN21(19–308) (domain or fragment)
chain: SKSCLVARIQLLNNEFVEFTLSVESTGQESLEAVAQRLELREVTYFSLWYYNKQNQRRWVDLEKPLKKQLDKYALEPTVYFGVVFYVPSVSQLQQEITRYQYYLQLKKDILEGSIPCTLEQAIQLAGLAVQADFGDFDQYESQDFLQKFALFPVGWLQDEKVLEEATQKVALLHQKYRGLTAPDAEMLYMQEVERMDGYGEESYPAKDSQGSDISIGACLEGIFVKHKNGRHPVVFRWHDIANMSHNKSFFALELANKEETIQFQTEDMETAKYIWRLCVARHKFYRLNQ
For the molecule B1, the Ka was 194000 M⁻¹.

B2: His10 − MBP−Hook3(553–624) (domain or fragment)
chain: EKLHEANNELQKKRAIIEDLEPRFNNSSLKIEELQEALRKKEEEMKQMEERYKKYLEKAKSVIRTLDPKQNQ
Regarding B2, the Ka was determined as 631000 M⁻¹.
